{"source": "the nanobody polyreactivity screen of Harvey et al. (2022)"}
{"test": "yeast display, Sf9 membrane polyspecificity reagent, FACS + sequencing; frameworks hold sequencing errors", "outline": "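Polyreactivity labels are assigned by the sorting gate from which each nanobody was recovered. The gates were low and high (top ~1%), set on anti-HA fluorescence for expression and streptavidin fluorescence for reagent binding. Before sorting, galactose-induced (36–48 hours) yeast display cells were stained for 1 hour at 4 °C with 10% biotinylated, detergent-solubilized Sf9 membrane reagent.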"}
{"sequence": "QVQLVESGGGLVQAGGSLRLSCAASGFTFYKYTMGWYRQAPGKERELVAAISARGGSTYYADSVKGRFTISRDNAKNTVYLQMNSLKPEDTSVYYCAADFWRTYGLGYDYWGQGTQVTVSS", "polyreactivity (PSR sort gate)": "high polyreactivity"}
{"sequence": "QVQLEESVGGLVQAGGSLRLICAASGSIFSSYAMGWYRQAPGKERELVATISKRGGITSYADSVKGRFTISRDNAKNTVYLQMNSLKPEDTAVYYCAADSWFSYRGPLYYWGQGTQVTVSS", "polyreactivity (PSR sort gate)": "high polyreactivity"}
{"sequence": "QVQLVESGGGLVQAGGRLRLSCAASGRTFARYDRGWYRQAPGKELVLVAGMNGDGGSTNYADSVKGRFTISRDNAKNSVYLQMNSLKPEDTAVYYCNVVQEDRTLHVSIKQLSDHWGQGTQVTVSS", "polyreactivity (PSR sort gate)": "low polyreactivity"}
{"sequence": "QVQHVESGGGLVQAGGSLRLNCAASGSTFFGNAMGWYRQAPGKERELVAAISGSGGSTYYADSVKGRFTISRDNAKNTVYLQMNSLKPEDTAVYYCAKYYLTGLARYDYWGQGTQVTVSS", "polyreactivity (PSR sort gate)": "high polyreactivity"}
{"sequence": "QVQLVESGGGLVQAVGSLRLSCAASASIFRNNAMGWYRQAPGKERELVASISSSGDNTNYADSVKGRFTISRDNAKNTVYLQMNSLKPEDTAVYYCAAANKGPDQADYHYDQWGQGTQVTVSS", "polyreactivity (PSR sort gate)": "low polyreactivity"}
{"sequence": "QVQLVESGGGLVQAGGSLRLSCAASGRIYYVYGMGWYRQAPGKERELVAAITRSGGSTYYADSVKGRFTISRDNAKNTVYLQMNSLKPEDTAVYYCAASVPYYTGYYYNAYEYWGQGTQVTVSS", "polyreactivity (PSR sort gate)": "high polyreactivity"}
{"sequence": "QVQLVESGGGLVQAGGSLRLSCAASGNIYSWYAMGWYRQAPGKERELVAVISRSGGSTYYADSVKGRFTISRDNAKNTVYLQMNSLKPEDTAVYYCAARAYRTPYSIQFDYWGQGTQVTVSS", "polyreactivity (PSR sort gate)": "high polyreactivity"}
{"sequence": "QVRLVESGGGLVQAGGSLRLSCAAYGSTFKTYAMGWYRPAPGKERELVAAISAGGGSTYYADSVKGRFTISRDNAKNTVYLQMNSLKPEDTAVYYCAAAYIYAGWDYEYWGQGTQVTVSS", "polyreactivity (PSR sort gate)": "low polyreactivity"}
{"sequence": "QLQLVESGGGLVQAGGSLRLSCAASGSIFDGNAMGWYRQAPGKERELVAAITNSGGSTYYADSVKGRFTISRDNAKNTVYLQMNSLKPEDTAVYYCNALPFAWRRYRWVRTMYYWGQGTQVTVSS", "polyreactivity (PSR sort gate)": "low polyreactivity"}
{"sequence": "QVQLVESGGGLVQAGGSLRLSCAASGSIFGWYAMGWYRQAPGKEREFVATISRRGGRTYYADSVKGRFTISRDNAKNTVYLQMNSLKPEDTAVYYCAANSVYKEDYWGQGTQVTVSS", "polyreactivity (PSR sort gate)": "high polyreactivity"}
{"sequence": "QVQLVESGGGLVQAGGSLRLSCAASGRIFSKNAMGWCRQAPGKERELVAGITSNSGSTYYADSVKGRFTISRDNAKNTVYLQMNSLIPEDTAVYYCAARFPHRHYLLYTYDYWGQGTQVTVSS", "polyreactivity (PSR sort gate)": "low polyreactivity"}
{"sequence": "QVQLVESGGGLVQAGGSLRLSCAASGLTFWPNAMGWYRQAPGKERELVAAISYTGGITYYADSVKGRFTISRDNAKNTDYLQMNSLKPEDTAVYSCNKGRRGYYSVRRYDYWGQGTQVTVSS", "polyreactivity (PSR sort gate)": "low polyreactivity"}
{"sequence": "QVQLVESGGGLVQAGGSLRLSCAASGSTFYAYAMGWYRQAPGKERELVASITYSGVSTYYADSVKGRFTISRDNAKNTVYLQMNSLKPEDTAVYYCATDYSHITYSHYRWWYNEYEYWGQGTQVTVSS", "polyreactivity (PSR sort gate)": "low polyreactivity"}
{"sequence": "QVQLVESGGGLDQAGGSLRLSCAASGRTINGNTMGCYRQAPGKQRELVAVIDWSGGSTYYADSVKGRFTISRDNAKNTVYLQMNSLKPEDTAVYYCNAETRDPILYGEYDYWGQGTQVTVSS", "polyreactivity (PSR sort gate)": "low polyreactivity"}
{"sequence": "RVQLVESGGGLVQAGGILRLSSAASGSTFPANAMGWYRQAPGKERELVAAITWRAASTYYADSVKGRFTISRDNAKNTVYLQMNSLKPEDTAVYYCARVTNSSAKNTDDYWGQGTQVTVSS", "polyreactivity (PSR sort gate)": "low polyreactivity"}
{"sequence": "QVHLVESGGGLVQAGGSLRLSCAASGLTFGVFAMGWYRQAPGKERELVAAITWRGDTTYYADSVKGRFTISRDNAKNTVYLQMNSLKPEDTAVYYCNAVFFYHGTKPAFISHDYWGQGTQVTVSS", "polyreactivity (PSR sort gate)": "low polyreactivity"}
{"sequence": "QVQLVESGGGLVQAGGSLRLSCAPSGFIFEGNAMGWYRQAPGKERELVATISRSGGRTNYADSVKGRFTISRDNAKNTVYLQMNSLKPEDTAVYYCAAAYLRRVAYDYWGQGTQVTVSS", "polyreactivity (PSR sort gate)": "high polyreactivity"}
{"sequence": "QVQLVESGGGLVQAGGSLRLSCAASGRIFRYYAMGWYRQAPGKERELVAAITWRGSSTYYADSVKGRFTISRDNAKNTVYLQMNSLKPEDTAVYYCNKLRSPHGYIRPGYDYWGQGTQVTVSS", "polyreactivity (PSR sort gate)": "high polyreactivity"}
{"sequence": "QVQLVESGGGLVQAGGSLRLSCAASGSTFVPYAMGWYRQAPGKERELVAAITTSGGNTYYADSVKGRFTISRDNAKNTVYLQMNSLKPEDTAVYYCAADTYRRFDYWGQGTQVTVSS", "polyreactivity (PSR sort gate)": "low polyreactivity"}
{"sequence": "QVQLVESGGGLVQAGGSLRLSCAASGSICAYYAMGGYRQAPGTERELVAAISQSGGSTYYADSVKGRVTISRDNAKNTVYLQMNSLKPEDTADYYCAARFRYGYSGYRYDYWGQGTQVNVSS", "polyreactivity (PSR sort gate)": "high polyreactivity"}
{"sequence": "QVQLVESGGGLVQAGGSLRLSCAASGRTFYRNAMGWYRQAPGKERELVAAISGSGVRTYYADSVKGRFTISRDNAKNTVYLQMNSLKPEDTAVYYCARSVTWFRGRFSPDYGSWGQGTQVTVSS", "polyreactivity (PSR sort gate)": "high polyreactivity"}
{"sequence": "QLQLVESVGGLDQAGGSLRLSCAASGSIFIRNAIGSYRQAPGKERELVAAISSTGSTYYADSVKGRFTISRDNAKNTVYLQMNSLKPEDTAVYYCADYYTVAMDYWGQGTQVTVSS", "polyreactivity (PSR sort gate)": "low polyreactivity"}
{"sequence": "QVQLVESGGGLVQAGGSLRLTCAASGIIFGKYTMGWYRPAPGKERELVADISKRGGSTYYADSVKGRFTISRDHAKNTVYLQMNSLKPEDTAVYNCAAERISSYDYWGQGTQVTVSS", "polyreactivity (PSR sort gate)": "high polyreactivity"}
{"sequence": "QFQLVESGGGLVQAGGSLRLSCAASGRIFPQYAMGWSRQATGKERELVAGITSVGSTYYADSVKGRFTISRDNAKNTVYLQMNSLKPEDTAVYYCAAFYRGGDYWGQGTQVTVSS", "polyreactivity (PSR sort gate)": "high polyreactivity"}
{"sequence": "QVQLVESGRGLVQAGGSLRLSCAASGRTFNWYAKGWYRQAPGKERELVAAISSGGSTYYADSVKGRFTISRDNAKNTVYLQMNSLKPEDTAVYYCAAVTPSGAHRSAYHPISDYWGQGTQVTVSS", "polyreactivity (PSR sort gate)": "low polyreactivity"}
{"sequence": "QLQLVESRGGLVQAGGSLRVSCAASGRISQIYAMGWSRQAPGKERELVARITSTDSTYYADSVKGRFTISRDNAKNTVYLQMNSLKPEDTAVYYCAASWWSPYDYWGQGTQVTVSS", "polyreactivity (PSR sort gate)": "low polyreactivity"}
{"sequence": "QVQLVESGGGLVQAGGSLRLSCAASGITFRSYAMGWYRQAPGKERELVAAITSGASTNYADSVKGRFTISRDNAKNTVYLQMNSLKPEDTAVYYCAATYHTWRGQYLWYDYWGQGTQVTVSS", "polyreactivity (PSR sort gate)": "low polyreactivity"}
{"sequence": "QVQLVESGGGLVQAGGSHRLSCAASGSIFYPYPMGLYRQAPGKERELVAAITTRDDSTRYADSVKGRFTISRDNAKNTGYLQMNTLKPEDTAVYYCNTDYGPVFGQYYWYELDYWGQGTQVNVSS", "polyreactivity (PSR sort gate)": "low polyreactivity"}
{"sequence": "QVQLLESGGGLDQAGGTLRLSCAASGGTINLYAMAWYRPAPGKERELVAAISWSGGTTYYADSVKGRFTLSRDNAKNTVYLQIISLKPVDTAVYYCAAYFRTSLGTYDYWGQGTKVTVSS", "polyreactivity (PSR sort gate)": "high polyreactivity"}
{"sequence": "QVQLVESGGGLVQAGGSLRLSCAASGNTFYINAMGWYRQAPGKERELVAAINYSGDSTYADSVKGRFTITRDNAKNTFYLQMNSLKPEDTAVYYCAADTGWYDDWTHDYWGHGTQVTVSS", "polyreactivity (PSR sort gate)": "low polyreactivity"}
{"sequence": "QVQLVESGGGLVQAGGSLRLSCAASGSTFAYYAMGWYRQAPGKEREFVAVINWRGGSTYYADSVKGRFTISRDNAKNTVYLQMNSLKQEDTAVYYCNGRSGGYYYGFDYWGQGTQVTVSS", "polyreactivity (PSR sort gate)": "low polyreactivity"}
{"sequence": "QVQLVESGGGLVQAGGSLRLSCAASGRIFGYNAMVWYRQAPGKERELVAAISYSGGSTYYADSVKGRFTISRDNAKNTVYLQMNSLKPEDTAVYYCATRPGYWRYEYWGQGTQVTVSS", "polyreactivity (PSR sort gate)": "high polyreactivity"}
{"sequence": "QVQLVESGGGLVQAGGSLRLSCAASGSIFYDYAMGWYRQAPGKERELVADITDDSTNYADSVKGRFTISRDNAKNTVYLQMNSLKPEDTAVYYCAVDWYWGWYWDGGVLTYYYWGQGTQVTVSS", "polyreactivity (PSR sort gate)": "low polyreactivity"}
{"sequence": "QDQLVESVGGLVQAGGSLRLSCAASGRTFGRYPMGSYIEAPGKEREMVAAIRSGGSTYYADSVKGRFTISRDNAKNTVYLLMNSLKPEDTAVYYCAADIDRHLTGFAYYRLDYWGQGTQVTVSS", "polyreactivity (PSR sort gate)": "low polyreactivity"}
{"sequence": "QVQLVESGGGLVQAGGSLRLSCAASGRTFEYNAMGWYRQAPGKERELVAAISSSGGSTRYADSVKGRFTISRDNAKNTVYLQMNSLKPEDTAVYYCAKRGYTSSRRWIYDYRGQGTQVTVSS", "polyreactivity (PSR sort gate)": "high polyreactivity"}
{"sequence": "QVQLVESGGGLVQAGGSLRLSCAASGIIFSWYAMGWYRQAPGKERELVATISSGAHTYYADSVKGRFTISRDNAKNTVYLQMNSLKPEDTAVYYCATTSYGYWFGYIPEVDYWGQGTQVTVSS", "polyreactivity (PSR sort gate)": "low polyreactivity"}
{"sequence": "QVQLVESGGGLVQAGGSLRLSCAASGLIFYPNGMGWYRQAPGKERELVAAITYSDGSTYYADSVKGRCTISRDNAKNTVYLQMNSLKPEDTAVYYCTARWGYRRGYWGQGTQVTVSS", "polyreactivity (PSR sort gate)": "high polyreactivity"}
{"sequence": "QVQLVESGGGLVQAGGSLRLSCAASGFISYPYAMGWSRPAPGKERELVAAISSSGGSTYYADSVKGRFTISRDNAKNTVYLQMNSLIPEDTAVYYCAARGFYRSYYWGQGTHVTVSS", "polyreactivity (PSR sort gate)": "high polyreactivity"}
{"sequence": "QIQLVESVGGLVQAGGSLRLSCDASGSTLKYTAMGWYRQAPRKESELVAAISTSGGNTYYADSVKGPFTISRDNAKNTVYLQMNSLKPEDTAVYYCAKVLGYYYYDYDSWGQGTQVTVSS", "polyreactivity (PSR sort gate)": "low polyreactivity"}
{"sequence": "QVQLVESGGGLVQAGGSLRLSCSASGSIFGRKMGWYRQAPVKERELVAAITWSGGRTYYADSVKGRFTISRDNAKNTVYLLMNCLKPEDTAVYYCNAVRRYTGYAFKDDYWGQGNQVTVSS", "polyreactivity (PSR sort gate)": "high polyreactivity"}
{"sequence": "QVKLVESGGGLVKAGASLRLSCAASGSTLQHYAMGWYRQAPGKERELVAAINRSGDRTYYADSVKGRFTISRDNAKTTVYLQMNSLKPEDTPVDYCAAYDDYRAPVRYEYWGQGTQVTVSS", "polyreactivity (PSR sort gate)": "high polyreactivity"}
{"sequence": "PVQLVESGGGLVQAGGSLRLSCAASGRILPSNAMGWYRQAPGKERELVAGITSGGSTDYADSVKGRFTISRDNAKNTVYLQMNSLNPVDTAVYYCAARYFHHYWGDLEVEFEYWGQGTQVTVSS", "polyreactivity (PSR sort gate)": "low polyreactivity"}
{"sequence": "QVQHVESGGGLVQAGGSLRLSCAASGFTFKFYTMGWYRQAPGKERELVAAISRSGGTTYYADSVKGRFTISRDNAKNTVYLQMTSLKPEDTAVYYCAAPRTKYLSKYGYWGQGTQVTVSS", "polyreactivity (PSR sort gate)": "high polyreactivity"}
